We go through 2 molecules from US20110319600A1.

The target in experiment [1] is hemagglutinin (HA) of human influenza B virus, B/Malaysia/2506/04 strain (human influenza B virus, B/Malaysia/2506/04 strain). Kind of experiment: cell-based or functional assay.
Experiment [2] has as its target hemagglutinin (HA) of human influenza B virus, B/Shanghai/261/02 strain (human influenza B virus, B/Shanghai/261/02 strain).
Experiment [3] addresses hemagglutinin (HA) of human influenza B virus, B/Mie/1/93 strain (human influenza B virus, B/Mie/1/93 strain).
For experiment [4], the target named is hemagglutinin (HA) of human influenza B virus, B/Victoria/2/87 strain (human influenza B virus, B/Victoria/2/87 strain).
Sequence of hemagglutinin (HA) of human influenza B virus, B/Victoria/2/87 strain (human influenza B virus, B/Victoria/2/87 strain) (P22092 16-585): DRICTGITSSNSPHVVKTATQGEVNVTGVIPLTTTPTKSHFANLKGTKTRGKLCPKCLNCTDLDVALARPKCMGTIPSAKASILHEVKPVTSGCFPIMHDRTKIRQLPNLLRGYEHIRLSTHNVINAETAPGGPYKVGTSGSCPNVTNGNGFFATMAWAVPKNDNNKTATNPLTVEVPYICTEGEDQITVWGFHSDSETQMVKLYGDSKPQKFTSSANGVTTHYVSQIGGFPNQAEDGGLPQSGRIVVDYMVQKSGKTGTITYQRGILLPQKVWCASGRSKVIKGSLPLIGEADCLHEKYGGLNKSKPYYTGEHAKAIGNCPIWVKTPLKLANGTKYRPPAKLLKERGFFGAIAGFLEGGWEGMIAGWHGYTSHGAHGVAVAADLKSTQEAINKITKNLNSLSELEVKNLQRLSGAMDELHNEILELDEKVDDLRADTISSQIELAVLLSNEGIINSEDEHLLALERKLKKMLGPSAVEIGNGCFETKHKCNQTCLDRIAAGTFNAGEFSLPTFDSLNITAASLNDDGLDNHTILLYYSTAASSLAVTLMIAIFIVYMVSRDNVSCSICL
Experiment [5] concerns the target hemagglutinin (HA) of human influenza B virus, B/Malaysia/2506/04 strain (human influenza B virus, B/Malaysia/2506/04 strain).

B1: E-2 monoclonal antibody (antibody, V domains shown)
VH: QVQLQESGPGLVKPLQTLSLTCVVSGDSISRGGYYWSWVRQPPERGLEWIGDIYHSGSTNYNPALKSRTTISVETSKNQFSLQLNSVTAADTAVYYCAREPPPDYSDYKVGKGYFDYWGQGALVTVSS
VL: EIVLAQSPATLSLSPGERATLSCRASETVDTYLAWYQQKPGQAPRLLINDASKRATGIPARFSGSGSGTDFTLTISGLEPEDFAVYWCQQHSNWPPTFGQGSRLEIK
For B1, the HI activity in experiment [1] is less than 2. Also, in experiment [1], the Neutralization activity (% inhibition) turned out to be 37.8 % inhibition. The staining activity in experiment [2] was greater than 128; in experiment [3], 128; in experiment [4], greater than 128; in experiment [5], 128.

B2: B-3 monoclonal antibody (antibody, V domains shown)
VH: QVKLVQSGGGAVQPGRSLRLSCEASGFDFTVYDIHWVRQAPGKGLEWVASIWHNGGKAYYADSVKGRFTVSRDNPQKTVYLQMSGLRPEDTATYYCAREFPFMGIYDYGMDAWGQGTTVTVAS
VL: QSVLAQPPSASGTPGQRVIISCSGTSSNIGGNSVNWYQHPPGAAPRLLIYTTDQRPSGVPDRFSGSKSGTSASLAISGLQSEDEADYYCEVWDDSLTRPVFGGGTKLTVL
For the molecule B2, the HI activity in experiment [1] was less than 2. In experiment [1], this molecule registered a Neutralization activity (% inhibition) of 31.7 % inhibition. The staining activity in experiment [2] was 32; in experiment [3], 32; in experiment [4] it was 32; in experiment [5], 8.
